# Assay results taken from patent US20060251625A1 (published 2006).
# T1: IKK2 (HA epitope-tagged, expressed from pHA-IKK2), O14920
# T1 chain: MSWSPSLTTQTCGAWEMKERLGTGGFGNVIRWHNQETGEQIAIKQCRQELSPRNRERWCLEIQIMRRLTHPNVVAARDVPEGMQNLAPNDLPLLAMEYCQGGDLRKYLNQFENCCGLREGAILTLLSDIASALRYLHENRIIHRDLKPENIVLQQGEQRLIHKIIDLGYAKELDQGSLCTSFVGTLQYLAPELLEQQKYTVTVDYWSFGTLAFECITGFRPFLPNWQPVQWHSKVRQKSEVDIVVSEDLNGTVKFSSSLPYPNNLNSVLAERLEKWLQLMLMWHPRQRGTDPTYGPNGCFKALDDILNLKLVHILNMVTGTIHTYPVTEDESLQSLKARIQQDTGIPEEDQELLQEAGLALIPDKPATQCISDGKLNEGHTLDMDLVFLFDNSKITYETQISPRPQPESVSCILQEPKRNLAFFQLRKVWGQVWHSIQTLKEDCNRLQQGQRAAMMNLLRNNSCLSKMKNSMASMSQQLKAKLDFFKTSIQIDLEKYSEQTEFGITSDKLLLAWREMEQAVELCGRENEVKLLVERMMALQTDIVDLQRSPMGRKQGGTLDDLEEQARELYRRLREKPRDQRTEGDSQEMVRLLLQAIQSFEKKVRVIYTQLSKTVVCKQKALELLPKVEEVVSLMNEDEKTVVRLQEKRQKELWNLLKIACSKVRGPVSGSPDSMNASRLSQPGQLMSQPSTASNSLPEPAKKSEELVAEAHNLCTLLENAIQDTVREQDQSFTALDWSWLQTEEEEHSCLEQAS
# T2: Receptor Interacting Protein RIP (UniProt Q13546 1-671, limits assumed)
# T2 sequence (looked up): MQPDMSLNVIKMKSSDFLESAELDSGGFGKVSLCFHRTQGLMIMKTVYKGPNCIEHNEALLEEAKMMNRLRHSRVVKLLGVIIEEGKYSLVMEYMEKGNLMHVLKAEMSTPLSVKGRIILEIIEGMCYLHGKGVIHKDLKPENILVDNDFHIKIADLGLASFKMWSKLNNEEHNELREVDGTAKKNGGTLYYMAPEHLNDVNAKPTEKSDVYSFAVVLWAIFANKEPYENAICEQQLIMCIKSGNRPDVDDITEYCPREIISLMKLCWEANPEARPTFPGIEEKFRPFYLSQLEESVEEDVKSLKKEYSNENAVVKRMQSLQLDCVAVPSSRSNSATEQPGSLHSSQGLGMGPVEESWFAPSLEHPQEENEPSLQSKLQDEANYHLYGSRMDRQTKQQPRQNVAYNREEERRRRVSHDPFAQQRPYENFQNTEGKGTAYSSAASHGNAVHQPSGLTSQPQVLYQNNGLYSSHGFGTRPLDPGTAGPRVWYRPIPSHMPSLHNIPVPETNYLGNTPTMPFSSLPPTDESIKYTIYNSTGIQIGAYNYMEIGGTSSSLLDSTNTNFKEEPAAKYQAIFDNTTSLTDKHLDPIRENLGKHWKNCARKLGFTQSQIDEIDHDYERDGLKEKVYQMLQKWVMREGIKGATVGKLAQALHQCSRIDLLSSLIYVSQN
# T3: TNF Receptor Associated Factor 2 TRAF2 (UniProt Q12933 1-501, limits assumed)
# T3 sequence (looked up): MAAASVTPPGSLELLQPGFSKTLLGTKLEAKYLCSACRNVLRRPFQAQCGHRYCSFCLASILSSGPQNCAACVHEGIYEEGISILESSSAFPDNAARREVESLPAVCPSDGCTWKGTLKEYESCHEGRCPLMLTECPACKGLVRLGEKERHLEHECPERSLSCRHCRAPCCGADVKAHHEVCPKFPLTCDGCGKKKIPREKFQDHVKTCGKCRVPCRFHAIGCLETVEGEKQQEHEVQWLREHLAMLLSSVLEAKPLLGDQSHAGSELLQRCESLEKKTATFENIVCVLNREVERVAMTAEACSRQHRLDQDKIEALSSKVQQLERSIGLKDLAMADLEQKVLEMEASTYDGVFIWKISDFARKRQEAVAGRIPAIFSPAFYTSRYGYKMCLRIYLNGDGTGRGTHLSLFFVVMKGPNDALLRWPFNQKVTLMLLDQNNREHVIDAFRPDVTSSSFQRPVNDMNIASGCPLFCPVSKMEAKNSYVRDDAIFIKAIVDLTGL
# Key:
# [1] = target: T1, IKK2 (HA epitope-tagged, expressed from …)
# [2] = target: T4, IKK-γ subunit (endogenous, 293T cells) (human, UniProt Q9Y6K9 1-419); experiment: co-immunoprecipitation with anti-IKK-γ from 293T lysates, immunoblot (FIG. 7C)
# T4 construct: also called endogenous IKK-γ
# [3] = target: T2, Receptor Interacting Protein RIP; experiment: not described (data not shown)
# [4] = target: T3, TNF Receptor Associated Factor 2 TRAF2; experiment: not described (data not shown)
# T4 sequence (Q9Y6K9 whole entry): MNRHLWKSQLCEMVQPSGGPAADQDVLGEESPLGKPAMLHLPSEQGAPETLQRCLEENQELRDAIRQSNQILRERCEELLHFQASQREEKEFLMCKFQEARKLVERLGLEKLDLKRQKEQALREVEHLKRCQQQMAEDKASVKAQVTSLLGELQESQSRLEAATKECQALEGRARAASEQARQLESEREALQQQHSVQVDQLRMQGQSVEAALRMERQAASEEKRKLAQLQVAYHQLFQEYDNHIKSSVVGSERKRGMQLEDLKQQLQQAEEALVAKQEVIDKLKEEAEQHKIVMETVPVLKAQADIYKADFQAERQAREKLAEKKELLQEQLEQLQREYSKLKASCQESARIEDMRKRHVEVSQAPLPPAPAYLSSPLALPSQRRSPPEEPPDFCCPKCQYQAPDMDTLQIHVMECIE
binder,measurement,setting,value
"IKK1 (FLAG epitope-tagged, expressed from pFLAG-IKK1) (protein) MERPPGLRPGAGGPWEMRERLGTGGFGNVCLYQHRELDLKIAIKSCRLELSTKNRERWCHEIQIMKKLNHANVVKACDVPEELNILIHDVPLLAMEYCSGGDLRKLLNKPENCCGLKESQILSLLSDIGSGIRYLHENKIIHRDLKPENIVLQDVGGKIIHKIIDLGYAKDVDQGSLCTSFVGTLQYLAPELFENKPYTATVDYWSFGTMVFECIAGYRPFLHHLQPFTWHEKIKKKDPKCIFACEEMSGEVRFSSHLPQPNSLCSLVVEPMENWLQLMLNWDPQQRGGPVDLTLKQPRCFVLMDHILNLKIVHILNMTSAKIISFLLPPDESLHSLQSRIERETGINTGSQELLSETGISLDPRKPASQCVLDGVRGCDSYMVYLFDKSKTVYEGPFASRSLSDCVNYIVQDSKIQLPIIQLRKVWAEAVHYVSGLKEDYSRLFQGQRAAMLSLLRYNANLTKMKNTLISASQQLKAKLEFFHKSIQLDLERYSEQMTYGISSEKMLKAWKEMEEKAIHYAEVGVIGYLEDQIMSLHAEIMELQKSPYGRRQGDLMESLEQRAIDLYKQLKHRPSDHSYSDSTEMVKIIVHTVQSQDRVLKELFGHLSKLLGCKQKIIDLLPKVEVALSNIKEADNTVMFMQGKRQKEIWHLLKIACTQSSARSLVGSSLEGAVTPQTSAWLPPTSAEHDHSLSCVVTPQDGETSAQMIEENLNCLGHLSTIIHEANEEQGNSMMNLDWSWLTE",phosphorylation of recombinant IκBα in an in vitro kinase assay of anti-IKK1 immunoprecipitates,[1],a phosphorylated form of recombinant IκBα was easily detected
"Molluscum contagiosum virus (MCV) MC160 protein (other, also called wild type MC160) MAHEPIPFSFLRNLLAELDASEHEVLRFLCRDVAPASKTAEDALRALQRRRLLTLSSMAELLCALRRFDVLKVRFGMTRECAGRLLGHGFLSQYRLQVAAINNMVGSEDLRVMCLCAGKLLPPSCTPRCLVDLVSALEDAGAISPQDVSVLVTLLHAVCRYDLSVALSAVAHGHMTVGVGTPVQDEPMDVLEVDDAEPMEATPACDEIGVVKLAGAASAGAPLADGAFAACTSAGKGEDLATSDLTDSEPEDSVFAVADPVYADVDLSMFVRANATADSSMFVNADAGADSSLVNADAGADSSLVNADAGADSSLVNAVADANSSLMRTTSACTDSEPEDSAGPSCAGMALSMFGRAKSVSSLLLRTKASY",binding result,[2],no binding
same,binding result,[3],no binding
same,binding result,[4],no binding
